Data set [1] concerns Capan-1, HPAF-II, PANC-1, MS1-VEGF and HMEC-1 cells. In words: Bevacizumab cell toxicity assay (SRB). Particulars: 24 h exposure; media containing or free of VEGF. In kind it is cell-based. As for the experimental part:
Cells were seeded at 1×10^4 cells/well in 1 ml volumes in a 48-well plate. The cells were incubated for 24 h in a 37° C. cell culture incubator set at CO2 5%. […] After 24 h of incubation the SRB assay was performed (as described in, e.g., Dandamudi et al., Biochim. Biophys. Acta 1768:427-438 (2007); Skehan et al., J. Natl. Cancer Inst. 82:1107-1112 (1990); and Kalra et al., Pharm. Res. 23:2809-2817 (2006)). Briefly, the plates were washed twice with 1 ml/well of 1×PBS. Then, […] trichloracetic acid 50% solution (TCA; […]) was added to each well and the plates were stored at 4° C. for 1 h. The plates were thoroughly washed with distilled H2O five times and then 200 μl of SRB 0.4% was added to each well The plates were stored at room temperature for 30 min and then washed 4-6 times thoroughly with acetic acid 1% to remove excess SRB and air dried. 1 ml of […] was added to each well to solubilize the SRB and fluorescence intensity was measured at excitation wavelength of 540/20 and emission wavelength of 590/20 nm using FLX 800 Fluorescence Microplate Reader (Biotech instruments Inc., Winooski, Vt.). All groups were compared with untreated cells for statistical analysis.

Another data set relates to HPAF-II pancreatic tumor. In words: In vivo therapeutic study, subcutaneous HPAF-II pancreatic tumor model, tumor volume. Also noted: species or system nude mice. Particulars: HPAF-II tumors; injections days 1, 4, 7, 10.

The values below come from patent publication US20120135064A1, “CONJUGATED NANODELIVERY VEHICLES” (Northeastern University, priority 2009, published 2012).

Procedure for HPAF-II pancreatic tumor: Tumors were grown by subcutaneously injecting 2×10^6 HPAF-II cells in 0.1 ml of cell culture media. Daily tumor volume measurements were taken using an electronic digital caliper (Control Company, Friendswood, Tex.). The equation a^2×b×0.52 was used to calculate the tumor volume, where ‘a’ and ‘b’ corresponded to the longer and shorter diameters, respectively. […] Animals received injections of the various formulations when the tumors reached a size of about 150 mm^3; the untreated control group received no injections. […] Day 1 injection was 18 μg of 2-methoxyestradiol for both PCL formulations. Day 4, 7, and 10 injections corresponded to 24 μg of 2-methoxyestradiol for both formulations. […] The end of the study was three days after the fourth injection, at which point the mice were anesthetized with ketamine/xylazine.

As for “bevacizumab: anti-VEGF antibody bevacizumab (Avastin, Roche)”, in data set [1], the “nontoxic concentration (maximum amount of antibody without altering the growth potential of the cells)” value amounted to 500 ng/mL. Besides, in the data set with HPAF-II pancreatic tumor, the “earliest day at which tumor response / significant benefit was seen” value was found to be 3 days.
